Variants at the floor of the assay were thinned out. Where only a bound is given, the exact number is not on record here.

The labels stand for the following.
B1: TPR 5TU (parent)
chain: GGAUCUUCUCGAUCUAACAAAAAAGACAAAUCUGCCACAAAGCUUGAGAGCAUCUUCGGAUGCAGAGGCGGCAGCCUUCGGUGGCGCGAUAGCGCCAACGUUCUCAACUAUGACACGCAAAACGCGUGCUCCGUUGAAUGGAGUUUAUCAUG

Variants of B1 are the subject of this data set. Kind of data set: polymerase ribozyme fitness, log enrichment relative to wild type (log ratio); higher = more active; in vitro selection for triplet polymerase activity. The essentials:
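Mutant libraries for each subunit of a heterodimeric triplet polymerase ribozyme were made by PCR and then transcribed. Each library underwent one round of in vitro selection in triplicate: annealing with a biotinylated primer, the partner subunit and triplets, frozen incubation at −7 °C, gel excision of extended constructs, streptavidin-bead capture and RT-PCR. Input and output libraries were Illumina-sequenced, and only genotypes with ≥10 input reads and ≥1 read per output were kept. Fitness is the logarithm, base 2, of genotype enrichment over wild-type enrichment, computed from inverse-variance-weighted replicate averages.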
Regarding GGAUCUUCUCGAUCUAACAAAAAAGACAAAACUGCCACAAAGCUUGAGAGGAUUUUCGGAUGCAGAGGCGGCAGCCUUCGGUGGCGCGAUAGCGCCAACGUUCUCAACUAUGACACGCAAAGCGCGUGCUCCGUUGAAUGGAGUUUAUCAUG, the “polymerase ribozyme fitness (log ratio)” value is -2.68. With GGAUCUUCUCGAUCUAACAAAAAAGACAAAAGUGCCACAAAGCUUGAGAGCAUCUUCGGAUGCAGAGGCGGGAGCCUUCGGUGGCGCGAUAGCGCCAACGUUCUCAACUAUGACACGCAAAACGCGUGCUCCGUUGAAUGGAGUUUAUCUUG the figure was at most -4.2. The result for GGAUCUUCUCGAUCUAACAAAAAAGACAAAACUGCCACAAAGCUUGAGAGCAUCUUCGGAUGCAGAGGCGGCAGCCUUCGGUGGCGCGAUAGCGGCAACGUUCUCAACUAUGACACGCUAAACGCGUGCUCCGUUGAAUGGAGUUUAUCAUG reads -1.25. The result for GGAUCUUCUCGAUCUAACAAAAAAGACAAAACUGCCACAAAGCUUGAGAGCAUCUUCGGAUGUAGAGGCGGCAGCCUUCGGUGACGCGAUAGCGCCAACGUUAUCAACUAUAACACGCAAAACGCGUGCUCCGUUGUAUGGAGUUUAUCAUU reads at most -4.2. Regarding GGAUCUUCUCGAUCUAACAAAAAAGACAAAACUGCCACAAAGCUUGAGAGCAUCUUCGGAUGCAGAGGCGGCAGCCUUCGGUGGCUCGAUAGCGCCAAUGUUCUCAACUAUGACACGCAAAACGCGUGCUCCGUUGAAUGGAGUUUAUCAUG, the “polymerase ribozyme fitness (log ratio)” value was -1.18. The result for GGAUCUUCUCGAUCUAACAAAAAAGACAAUUCUGCCACAAAGCUUGAGAGCAUCUUCGGAUGCAGAGGCGGCAGCCUCCGGUGGCGCGAUAGCUCCAGCGUUCUCAACUAUGACACGCAAAACGCGUGCUCCGUUGAAUGGAGUUUAUCAUA reads at most -4.2.

Turning to GGAUCUUCUCGAUCUAACAAAAAAGACAAAACUGCCACAAAGCUUGAGAGCAUCUUCGGAUGCAGAGGCGGCAGCCUACGGUGGCGCGAUAGCGCCAACGUUCUCAACUAUGACACGCAAAAGGCGUGCUCCGUGGAAUUGAGUUUAUCAUG, the “polymerase ribozyme fitness (log ratio)” value is at most -4.2. GGAUCUUCUCGAUCUAACAAAAAAGACAAAACUGCCACAAAGCUUGAGAGCAUCUUCUGAUGCAGAGGCGGCAGCCUUCGGUGGCGCGAUAGCGCCAACGUUCUCAACUAUGACACGCAAAACGCGUGCUCCGUUGAAUGGAGUUGAUCAUG: the “polymerase ribozyme fitness (log ratio)” value is -0.274. With GGAUCUUCUCGAUCUAACAAAAAAGACAAAACUGCCACAAAGCUUGGGAGCAUCUUCGGAUGCAGAGGCGGCUGCCUUCGGUAGCGCGAUAGCGCCAACGUUCUCAACUAUGACACGCAAAACGCGUGCUCCGUUGAAUGGAGUUUAUCAUG the figure was -3.5; with GGAUCUUCUCGAUCUAACAAAAAAGACAAUUCCGCGACAAAGCUUGAGAGCAUCUACGGAUGCAGAGGCGGCAGCCUUCGGUGGUGCGAUAGCGCCAACGUUCUCAACUAUGAGACGCAAAACGCGUGCUCCGUUGAAUGGAGUUUAUCAUG, -3.84; with GGAUCUUCUCGAUCUAACAAAAAAGACAAAACUGCCACAAAGCUUGAGAGCAUCUUCGGAUGCAGAGGCGGCAGCCUUCGGUGGCGCGAUGGCGCCAACGUUCUCGACUAUGACACACUAAACGCGUGCUCCGUUGAAUGGAGUUCAUCAUG, -1.71. With GGAUCUUCUCGAUCUAACAAAAAAGACAAAACUGCCACAAAGCUUGAGAGCAACUUCGGAUGCAGAGGCGGCAGCCUUCGGUUGCGCGAUAGCGCCAACCUUCUCAACUAUGACACGCAAAACGCGUGCUCCAUUGAAUGGAGUUUAUCAUG the figure was at most -4.2. Take GGAUCUUCUCGAUCUAACAAAAAAGACAAAACUGCCACAAAGCUUGAGAGCCUCUUCGGAUGCAGAGGCGGCAGCCUUCGGUGGCGCGAUAGCGCCAACGUUCGCAACUAUGACACGCAAAACGCGUGCUCCGGUGAAUGGAGUUUAUCAUG: the “polymerase ribozyme fitness (log ratio)” value was at most -4.2.

As for GGAUCUUCUCGAUCUAACAAAAAAGACAAAACUGCCACAAAGCUUGAGAGCAUCUUCGGAUGCAGAGGCGGCAGCCUUCGGUGGUGCGAUAGCGCCAACGAUCUCAACUAUGACACGCAAAACGCGUGCUCCGUUGAAUGGAGUUUAUCUUG, the “polymerase ribozyme fitness (log ratio)” value was -1.46. The result for GGAUCUUCUCGAUCUAACAAAAAAGACAAUUCUGCCACAAAGCUUGAGAGCAGCUUCGGAUGCAGAGGCGGCAGCCUUCGGUGACGCGAUAGCGCCAACGUUCUCAACUAUGACACGCAAAACGCGUGCUCCGUUGAAUGGAGUUUAUCAUG reads -4.15; that for GGAUCUUCUCGAUCUAACAAAAAAGACAAAACUGCCACAAAGCUUGAGAGCAUCUUCGGAUGCAGAGGAGGCAGCCUUCGGUGGCGCGAUAUCGCCAACGUUCUCAACUAUGACUCGCAAAACGCGUGCUCCGUUGAAUGGAGUUUAUCAUG, -3.26; that for GGAUCUUCUCGAUCUAACAAAAAAGACAAUUCUGCCACAAAGCUUGAGAGCAUCUACCGAUGCAGAGGCGGCAGCCUUCGGUGGCGCGAUAGCGCCAACGUUCUCAACUAUGACACGCAAAACGCGUGCUCAGUUGAAUGGAGUUUUUCAUG, at most -4.2. The result for GGAUCUUCUCGAUCUAACAAAAAAGACAAAACUGCCUCAAAGCUUGAGAGCAUCUUCGGAUGCAGAGGCGGCAGCCUUCGGUGGCGCGAGAGUGCCAACGUUCUCAACUAUGACACGCAAAACGGGUGCUCCGUUGAAUGAAGUUUAUCAUG reads at most -4.2; that for GGAUCUUCUCGAUCUAACAAAAAAGACAAUUCUGCCACAAAGCUGGAGAACAUCUUCGGAUGCAGGGGCGGCAGCCUUCGGUGGCGCGAUAGCGCCAACGUUCUCAACUAUGGCACGCAAAACGCGUGCUCCGUUGAAUGGAGUUUAUCAUA, at most -4.2. The result for GGAUCUUCUCGAUCUAACAAAAAAGACAAAACUGCCACAAAGCUUAAGAGCAUCUUCGGAUGCAGAGGCGGCAGCCUUCGGCGGCGCGGUAGCGCCAACGUUCUCAACUAUGACACGCAAAACGCGUGCUCCGUUGAAUGGAGUCUAUCAUG reads -3.66.

With GGAUCUUCUCGAUCUAACAAAAAAGACAAAACUGCCACAAAGCUUGAGAGCAUCUUCGGAUGCAGAGGCGGCAGCCUUCGGUGGCGCGAUAGUGCCAACGUUCUCAACUAUGACACGCAAUACGCGUGCUCCGUUGAAUGGAGUUUAUCAUG, the “polymerase ribozyme fitness (log ratio)” value is -0.469. With GGAUCUUCUCGAUCUAACAAAAAAGACAAUUCUGCCACAAAGCUUGAGAGCAUCUACGGAUGCAGAGGCGGCAGCCUUCGGUGGCGCGAUAGUGCCAACGUUCUCAACUAUGACACGCAAAACGCGUGCUCCGUUGAAUGAAGUUUAUCAUG the figure was at most -4.2; with GGAUCUUCUCGAUCUAACAAAAAAGACAAUUCUGCCACAAAGCUUGAGAGCAUCAUCGGAUGCAGAGGCGGCAGCCUUUGGUGGCGUGAUAGCGCCAACGUUCUCAACUAUGACCCGGAAAACGCGUGCUCCGUUGAAUGGAGUUUAUCAUG, at most -4.2; with GGAUCUUCUCGAUCUAACAAAAAAGACAAAACUGCCACAAAGCUUGAGAGCAUCUUCGGAUGCAGAGGCGGCAGCCUUCGGUGGCGCGAUAGAGCCAACGUUCUCAACUAUGACACGCAAAACGCGUGUUCCGUUGAAUGGAGUUUAUCAUG, -2.44.

As to GGAUCUUCUCGAUCUAACAAAAAAGACAAAACUGCCAGAAAGCUUGAGAGCAUCUUCGGAUGCAGAGGCGGCAGCCUUCGGUGGCACGAUAGCGCCAACGUUCUCAACUAUGACACGCAAAACGCGUGCUCCGUUAAAUGGAGUUUAUCAUG, the “polymerase ribozyme fitness (log ratio)” value was -1.16.

With GGAUCUUCUCGAUCUAACAAAAAAGACAAAACUGCCACAAAGCUUGAGAGCAUCUUCGGAUGCAGAGGCGGCAGCCUUCGGUGGCGCGAUAGCGCCAACGUUCUCAACUAUGACAUGCAAAACGCGUGCUCCGUUGAAUGGAGUUUAUCAUG, the “polymerase ribozyme fitness (log ratio)” value is -0.00779. The result for GGAUCUUCUCGAUCUAACAAAAAAGACAAAACUGCCACAAAGCUUGAGAGCAUCUUCGGAUGCAGAGGCGGCAGCCUUCGGUGGCGCGAUAGCGCCAACGUUUUCAACUAUGACACGCAAAACGCGUGCUCCGUUGAAUGGAGUUUAUCAUG reads 0.00968.

As to GGAUCUUCUCGAUCUAACAAAAAAGACAAAACUGCCACAAAGCUUGAGAGCAUCUUCGGAUGCAGAGGCGGCAGCCUUCGGUGGCGCGAUAGCGCCAACUUUCUCAACUAUGACACGCAAAACGCGUGCUCCGUUGAAUGGAGUUUAUCAUG, the “polymerase ribozyme fitness (log ratio)” value was at most -4.2. With GGAUCUUCUCGAUCUAACAAAAAAGACAAAACUGCCACAAAGCUUGAGAGCAUCUUCGGAUGCAGAGGCGGCAGCCUUCGGUGGCGCGAUAGCGCCAACGUUCUCAACUAUGACACGCAAAACGCGUGCUCCGUUGAAUGGAAUUUAUCAUG the figure was -0.454. GGAUCUUCUCGAUCUAACAAAAAAGACAAAACUGCCACAAAGCUUGAGAGCAUCUUCGGAUGCAGAGGCGGCAGCCUUUGGUGGCGCGAUAGCGCCAACGUUCUCAACUAUGACACGCAAAACGCGUGCUCCGUUGAAUGGAGUUUAUCAUG: the “polymerase ribozyme fitness (log ratio)” value was -2.71. The result for GGAUCUUCUCGAUCUAACAAAAAAGACAAAACUGCCACAAAGCUUGAGAACAUCUUUGGAUGCAGAGGCGGCAGCCUUCGGUGGUGCGAUAGCGCCAACGUUCUCAACUAUGACACGCCAAACGCGUGCUCCGUUGAAUGGAGUUUAUCAUG reads -1.76; that for GGAUCUUCUCGAUCUAACAAAAAAGACAAAACUGCCACAAAGCUUGAGAGCAUCUUCGGAUGCAGAGGCGGCAGCCUUCGGUGGCGCGAUAGCGCCAACGUUCUCAACUAUGACACGCAGAACGCGUGCUCCGUUGAAUGGAGUUUAUCAUG, 0.523; that for GGAUCUUCUCGAUCUAACAAAAAAGACAAAACUGCCACAAAGCUUGAGAGCAUCUUCGGAUGCAGAGGCGGCAGCCUCCGGUGGCGCGAUAGCGCCAACGUUCUCAACUAUGACACGCAAAACGCGUGCUCCGUUGAAUGGAGUUCAUCAUG, -0.876. Turning to GGAUCUUCUCGAUCUAACAAAAAAGACAAUUCUGCCACAAAGCUUGAGAGCAUCUGCUGAUGCAGAGGCGGCGGCCUUCGGUGGUGCGAUAGCGCCAACGUUCUUAACUAUGACACGCAAAACGCGUGCUCCGUUGAAUGCAGUUUAUCAUG, the “polymerase ribozyme fitness (log ratio)” value was at most -4.2.

With GGAUCUUCUCGAUCUAACAAAAAAGACAAAACUGCCACAAAGCUUGAGAGCAUCUUCGGAUGCAGAGGCGGCAGGGUUCGGUUGCGCGAUAGCGUCAACGUUCUCAACUAUGACUCGCAAAACGCGUGCUCCGUUGAAUGGAGUUUAUCAUG, the “polymerase ribozyme fitness (log ratio)” value was at most -4.2.

Consider GGAUCUUCUCGAUCUAACAAAAAAGACAAAACUGCCACAUAGCUUGAGCGCAUCUUCGGAAGCAGAGGCGGCAGCGUUCGGUGGUGCGAUAGCGCCAACGUUCUCAACUAUGACACGCAAAACGCGUGCUCCGUUGAAUGGAGUUUAUCAUG, for which the “polymerase ribozyme fitness (log ratio)” value is at most -4.2. On to GGAUCUUCUCGAUCUAACAAAAAAGACAAAACUGCCACAAAGCUUGAGCGCAUCUUCGGAUGCAGAGGCGGCAGCCUUCGGGGCCGCGAUAGCGCCAACGUUCUCAACUAUGACACGCAAAACGCGGGCUUCGUUGAAUGGAGUUUAUCAAG, for which the “polymerase ribozyme fitness (log ratio)” value was at most -4.2. The result for GGAUCUUCUCGAUCUAACAAAAAAGACAAAACUGCCAGAAAGCUUGAGAGCAUCUUCAGAUGCAGAGGCGGCAGCCUUCGGUGGCGCGAUAGCGCCAACGUUCUCAACUAUGACACGCAAAACGCGUGCUCCGUUGAAUGGAGUUUAUCAUG reads 0.153.

These data come from the RNAGym collection of RNA variant scans (doi:10.1073/pnas.2313332121).
